Test results reported in patent publication US20180022809A1 (VENTANA MEDICAL SYSTEMS, published 2018).
No end group written: not given here.

T1: peptide fragment of the cytoplasmic region (amino acid residues 279-290) of human PD-L1 (human, not fully specified)
T1 construct: For immunization, Cys-Gly was appended to the N-terminus and the peptide was conjugated to KLH; also called PD-L1 antigen
T1 peptide: SKKQSDTHLEET

B1: anti-PD-L1 antibody SP142 (antibody, V domains shown)
VH: QSLEESGGRLVKPDETLTITCTVSGIDLSSNGLTWVRQAPGEGLEWIGTINKDASAYYASWAKGRLTISKPSSTKVDLKITSPTTEDTATYFCGRIAFKTGTSIWGPGTLVTVSS
VL: AIVMTQTPSPVSAAVGGTVTINCQASESVYSNNYLSWFQQKPGQPPKLLIYLASTLASGVPSRFKGSGSGTQFTLTISGVQCDDAATYYCIGGKSSSTDGNAFGGGTEVVVR
notes: the constant regions are not; also called rabbit anti-human PD-L1 (SP142) monoclonal antibody

Key:
[1] = target: human programmed death-ligand 1 (PD-L1) (human) (UniProt Q9NZQ7); experiment: IHC on FFPE tissue sections of 119 NSCLC cases
Chain of human programmed death-ligand 1 (PD-L1) (human) (Q9NZQ7 19-290 limits assumed): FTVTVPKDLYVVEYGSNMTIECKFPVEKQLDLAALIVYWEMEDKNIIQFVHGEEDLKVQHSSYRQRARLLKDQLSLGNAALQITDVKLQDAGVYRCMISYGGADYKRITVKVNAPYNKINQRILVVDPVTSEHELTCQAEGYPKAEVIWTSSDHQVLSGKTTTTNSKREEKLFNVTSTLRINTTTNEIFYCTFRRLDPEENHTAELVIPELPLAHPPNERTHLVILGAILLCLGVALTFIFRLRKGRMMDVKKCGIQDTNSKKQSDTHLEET

[2] = target: T1, peptide fragment of the cytoplasmic …; experiment: ELISA screen on the PD-L1 peptide antigen

Molecule	mean H score (extent of membrane immunoreactivity) (H score (range 0 to 300)) [1]	binding result [2]
anti-PD-L1 antibody E1L3N (Cell Signaling Technology)	56	–
B1	–	binds
